Columns and labels:
Assay in all cases: SPR, hIgG1 antibody captured, room temp
[1] = target: T1, Dimeric fibrinogen-like domain of human Ang-2 conjugated to human IgG1 (human)
T1 construct: also called Dimeric Human Ang-2FD; Human Ang-2FD-hFc
Description: (§1) Antibody was captured on a goat anti-mouse IgG polyclonal antibody surface, a goat anti-human κ polyclonal antibody (Southern Biotech, Birmingham, Ala.) surface or a goat anti-human IgG polyclonal antibody (Jackson Immuno Research Lab, West Grove, Pa.) surface created through direct amine coupling to a BIACORE™ CM5 sensor chip to form a captured antibody surface. […] Antigen-antibody binding and dissociation were monitored in real time at room temperature. Kinetic analysis was performed to calculate KD and half-life of antigen/antibody complex dissociation.
(§2) The above experiment was repeated using selected purified anti-Ang-2 antibodies cloned onto human IgG1.

[2] = target: T2, Dimeric fibrinogen-like domain of mouse (Mus musculus) Ang-2 conjugated to human IgG1 (mouse (Mus musculus))
T2 construct: also called Dimeric Mouse Ang-2FD; Mouse Ang-2FD-hFc
T2 sequence (chain, as listed by the source limits assumed): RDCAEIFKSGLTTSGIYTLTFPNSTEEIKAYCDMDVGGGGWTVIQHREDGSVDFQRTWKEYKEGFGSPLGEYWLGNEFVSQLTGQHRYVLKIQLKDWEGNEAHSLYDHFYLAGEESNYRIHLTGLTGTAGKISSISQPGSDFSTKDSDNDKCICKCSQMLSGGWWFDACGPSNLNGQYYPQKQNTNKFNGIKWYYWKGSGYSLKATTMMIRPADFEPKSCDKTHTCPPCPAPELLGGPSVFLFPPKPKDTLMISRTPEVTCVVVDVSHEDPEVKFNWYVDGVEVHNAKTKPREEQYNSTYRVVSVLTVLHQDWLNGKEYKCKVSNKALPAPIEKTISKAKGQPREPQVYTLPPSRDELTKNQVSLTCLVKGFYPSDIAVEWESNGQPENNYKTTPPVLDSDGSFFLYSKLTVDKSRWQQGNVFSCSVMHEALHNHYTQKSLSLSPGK
Description: as §1, §2

[3] = target: T3, Dimeric fibrinogen-like domain of monkey (Macca fascicularis) Ang-2 conjugated to human IgG1 (monkey (Macca fascicularis))
T3 construct: also called Dimeric Monkey Ang-2FD; Monkey Ang-2FD-hFc
T3 sequence (chain, as listed by the source limits assumed): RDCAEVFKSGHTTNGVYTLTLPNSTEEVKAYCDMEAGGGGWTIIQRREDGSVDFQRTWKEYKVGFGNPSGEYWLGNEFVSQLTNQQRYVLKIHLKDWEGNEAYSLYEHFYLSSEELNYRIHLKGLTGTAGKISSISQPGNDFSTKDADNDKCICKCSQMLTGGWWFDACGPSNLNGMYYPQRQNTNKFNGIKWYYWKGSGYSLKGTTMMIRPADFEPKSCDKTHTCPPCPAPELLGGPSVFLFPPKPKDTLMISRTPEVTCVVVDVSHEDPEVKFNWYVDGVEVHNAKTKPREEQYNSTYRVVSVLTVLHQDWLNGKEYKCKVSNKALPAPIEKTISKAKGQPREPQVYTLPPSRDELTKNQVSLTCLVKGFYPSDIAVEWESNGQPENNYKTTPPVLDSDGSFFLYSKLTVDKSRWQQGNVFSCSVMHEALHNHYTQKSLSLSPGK
Description: as §1, §2

T1 sequence (chain, as listed by the source limits assumed): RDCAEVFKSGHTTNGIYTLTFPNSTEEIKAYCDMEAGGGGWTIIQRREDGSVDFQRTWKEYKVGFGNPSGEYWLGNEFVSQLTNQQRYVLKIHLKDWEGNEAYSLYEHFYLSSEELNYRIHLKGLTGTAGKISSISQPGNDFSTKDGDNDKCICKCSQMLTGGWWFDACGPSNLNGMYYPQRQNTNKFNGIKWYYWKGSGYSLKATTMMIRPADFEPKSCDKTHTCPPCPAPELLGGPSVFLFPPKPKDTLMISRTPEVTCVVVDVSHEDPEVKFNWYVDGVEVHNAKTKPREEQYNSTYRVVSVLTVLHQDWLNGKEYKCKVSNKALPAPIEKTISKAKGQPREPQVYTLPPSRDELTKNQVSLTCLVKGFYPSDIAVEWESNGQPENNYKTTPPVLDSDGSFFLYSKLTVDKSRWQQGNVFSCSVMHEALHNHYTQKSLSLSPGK

Row | Binder | Kd [1] | T1/2 [1] | Kd [2] | T1/2 [2] | Kd [3] | T1/2 [3]
1 | H1H724N (antibody, V domains shown) VH: QVQLVESGGGVVQPGRSLRLSCAASGFTLSNYGMHWVRQAPGKGLEWVAVIWHDGSNTYYADSVKGRFTISRDNSKNTLYLQMNSLRAEDTAVYYCTREGLDFWSGYYPNWFDPWGQGTLVTVSS VL: DIQMTQSPSSLSASVGDRVTITCRASQGIRNDLGWYQQKPGKAPKRLIYAASNLQGGVPSRFSGSGSGTEFTLTISSLQPEDFAAYYCLQHNIYPLTFGGGTKVEIK | 0.115 nM | 1.78 h | 0.185 nM | 1.4 h | 0.239 nM | 2.88 h
2 | H1H732N (antibody, V domains shown) VH: EVQLVESGGGLVRPGGSLRLSCAASGFTFTNAWMSWVRQAPGKGLEWIGQIKSKTDGGTIDYAAPVKGRFTVSRDDSENTLFLQMNSLKTEDTAVYYCAGNWNYVDFDYWGQGTLVTVSS VL: DIQMTQSPSSLSASVGDRVTITCRASQDIRNDLGWYQQKPGKAPKRLIYAASSLQGGVPSRFSGSGSGTEFTLTISSLQPEDFATYYCLQHNSYPFTFGPGTKVDIK | 0.386 nM | 0.95 h | 0.529 nM | 0.85 h | 0.439 nM | 1.97 h
3 | H1H690P (antibody, V domains shown) VH: EVQLVESGGGLVQPGESLRLSCAASGFTFSSYAMSWVRQGPGKGLEWVSSITGSGDTTYYADSVKGRFTISRDNSKNTLYLHMNSLRAEDTAVYYCAKDFLDYSTYLAFDLWGQGTMVTVSS VL: EIVLTQSPATLSLSPGERATLSCRASQSVSSYLTWYQQKPGQAPRLLSYDASNRATGIPARFSGSGSGTDFTLTISSLEPEDFAVYYCQQRSNWPLTFGGGTKVEIK | 0.079 nM | 2.1 h | 0.0913 nM | 1.75 h | 0.0556 nM | 3.25 h
4 | H1H743N (antibody, V domains shown) VH: EVQLLESGGGLVQPGGSLRLSCAASGFTFRKYAMSWVRQAPGKGLEWVSVISVSGGNTYYADSVKGRFTISRDNSKNTLYLQLNSLRAEDTAVYYCAKDLTDIVLMVYVDYWGQGTLVTVSS VL: DIQMTQSPSSVSASVGDRVTITCRASQDIDRWLAWYQQKPGKAPKLLIYAASSLQSGVPSRFSGSGSGTDFTLTISTLQPEDFATYYCQQANSLPFTFGGGTKVEIK | 0.0882 nM | 4.23 h | 0.124 nM | 3.88 h | 0.0965 nM | 13 h
5 | H1H706P (antibody, V domains shown) VH: QVQLVESGGGVVQPGRSLRLSCAASGFTFSSYGMHWVRQAPDKGLEWVAVKWDDGSNKYYADSVKGRFTISRDNSKNTLYLQMNSLRAEDTAVYYCAREGPYDFYSGYGAFDIWGQGTMVTVSS VL: DIQMTQSPSSLSASVGDRVTITCRASQGISNYLAWFQQKPGKAPKSLIYAASSLQSGVPSKFSGSGSGTDFTLTISSLQPEDFATYYCQQYNSYPRTFGQGTKVEIK | 0.201 nM | 0.84 h | 0.357 nM | 0.783 h | 0.164 nM | 0.888 h
6 | H1H707P (antibody, V domains shown) VH: QVQLVESGGGVVQPGRSLRLSCAASGFTFSSYGMHWVRQAPDKGLEWVAVKWDDGSNKYYADSVKGRFTISRDNSKNTLYLQMNSLRAEDTAVYYCAREGPYDFYSGYGAFDIWGQGTMVTVSS VL: not shown | 0.262 nM | 0.443 h | 0.328 nM | 0.573 h | 0.283 nM | 0.372 h
7 | H1H691P (antibody, V domains shown) VH: EVQLVESGGGLVQPGRSLRLSCAASGFTFDDYAMHWVRQAPGKGLEWVSGISWNSGDIGYADSVKGRFTISRDNAKNSLYLQMNSLRAQDTALYYCAKAYGDYYYFYGMDVWGQGTTVTVS VL: EIVLTQSPGTLSLSPGERATLSCRASQSVSSSYLAWYQQKPGQAPRLLIFSASSRATGIPDRFSGSGSGTDFTLTISRLEPEDFAVYYCQQYDNSLTFGGGTKVEIK | 0.22 nM | 0.642 h | 0.22 nM | 0.73 h | 0.29 nM | 0.683 h
8 | H1H742N (antibody, V domains shown) VH: DVQLLESGGDLVQPGGSLRLSCEASGFTFRNYVMIWVRQAPGKGLEWVSGISNSGGTTHYTDSVKGRFTISRDNSKNTLYLQINSLRAEDTAVYYCAKGYLDTSLIEGNWFDPWGQGTLVTVSS VL: NIVMTQSPLSLPVTPGEPASISCRSSQSLLHSNGFNYLNWFLQKPGQSPQLLIYLGSNRASGVPDKFSGSGSGTDFTLNINRVEAEDVGIYFCMQTLQTPLTFGGGTKVEIK | 0.186 nM | 1.08 h | 0.276 nM | 0.967 h | 0.683 nM | 1.55 h
9 | H1H728N (antibody, V domains shown) VH: EVQLVESGGDLVQPGGSLRLSCTASGFTFSKYWMTWVRQAPGRGLEWVANIKEDGNEKYFLDSVKGRFTISRDNAKDLLFLQMNSLRGEDTAVYYCVRDRGIEVAGPFDYWGQGTLVTVSS VL: DIQMTQSPSTLSASVGDRVTVTCRASQTIINWLAWYQQKPGKAPKLLISKASSLESGVPSRFSGSGSGTEFTLTISSLQPDDFATYYCQQYNRYWTFGQGTMVEIK | 0.162 nM | 1.35 h | 5.76 nM | 0.333 h | 2 nM | 1.28 h
10 | H1H749N (antibody, V domains shown) VH: QVQLVESGGGVVQPGRSLRLSCAASGFTFSSYGMHWVRQAPGKGLEWVAVIWYDEFNKYYADSVKGRFTISRDNSKNTLYLQMNSLRAEDTAVYYCARERESGYSYGFDYWGQGTLVTVSS VL: EIVMTQSPATLSVSPGERATLSCRAGQSVSSNLAWYQQKPGQAPRLLIYGASTRATGIPARFSGSGSGTEFTLTISSLQSEDFAVYYCQQYNNWWTFGQGTKVEIK | 0.118 nM | 1.82 h | 0.177 nM | 1.6 h | 0.407 nM | 2.38 h

More lines, in order of falling Kd [1], values ahead:

Row | Kd [1] | T1/2 [1] | Kd [2] | T1/2 [2] | Kd [3] | T1/2 [3] | Binder
11 | 0.5 nM | 0.618 h | 0.446 nM | 1.06 h | 1.17 nM | 0.293 h | H1H693P (antibody, V domains shown) VH: EVQLVESGGGLVQPGESLRLSCAASGFTFSSYAMSWVRQGPGKGLEWVSSISGSGGTTYYADSVEGRFTISRDNSKNTLYLHMNSLRAEDTAVYYCAKDFLDYSTYLAFDLWGQGTMVTVSS VL: DIQMTQSPSSVSASVGDRVTITCRASQGISSWLAWYQQKPGKAPKLLIYAASSLQSGVPSRFSGSGSGTDFTLTISSLQPEDFATYYCQQANSFPRTFGQGTKVEIK
12 | 0.331 nM | 1.43 h | 0.484 nM | 1.03 h | 0.818 nM | 0.558 h | H1H704P (antibody, V domains shown) VH: QVQLVESGGDVVQPGRSLRLSCAASGFTFSSYGMHWVRQAPGKGLEWVAIIWYDGSNKYYADSVKGRFTISRDNSKNTLYLQMNSLRVEDTAVYSCARDFSISSRHFDYWGQGTLVTVSS VL: DIQMTQSPSSLSASVGDRVTITCRASQAINNYLAWFQQKPGKAPKSLIYATSNLQSGVPSQFSGSGSGTDYTLTISSLQPEDFATYYCQQYYIYPITFGQGTRLEIK
13 | 0.289 nM | 0.647 h | 0.402 nM | 0.627 h | 0.354 nM | 0.61 h | H1H696P (antibody, V domains shown) VH: QVQLVESGGGLVKPGGSLRLSCAASGFTFSDYYMSWIRQAPGKGLEWVSYISYTGRTIYYADSVKGRFTISRDNAKNSLYLQMNSLRAEDTAVYYCARDTDYGDFFDYWGQGTLVTVSS VL: DIQMTQSPSSLSASVGDRVTITCRASQGISNYLAWFQQKPGKAPKSLIYAASSLQSGVPSKFSGSGSGTDFTLTISSLQPEDFATYYCQQYNSYPLTFGGGTKVEIK
14 | 0.245 nM | 2.45 h | 0.347 nM | 2.07 h | 0.44 nM | 1.4 h | H1H695P (antibody, V domains shown) VH: QVQLVESGGGVVQPGRSLRLSCAASGFTFSSYGMHWVRQAPGKGLEWVAVMWYDETNKYYADSVKGRFTISRDNSKNTLYLQMNSLRAEDTAVYYCARYSGYEDYYHGMDVWGQGTTVTVS VL: EIVMTQSPATPSVSPGERATLSCRASQSISSNLAWYQQKPGQAPRLLIYGASTRATGIPARFSGSGSGTEFTLTISSLQSEDFAVYYCQHYNNWITFGQGTRLEIK
15 | 0.234 nM | 1.03 h | 0.0971 nM | 1.5 h | 3.4 nM | 1.45 h | H1H730N (antibody, V domains shown) VH: EVQLVESGGGLVQPGGSLRLSCAASGFAFRSYWMTWVRQAPGKGLEWVANIQQDGNDKYYVDSVKGRFTISRDNAKNSLYLQMNSLRAEDTAVYYCARDTGIAEAGPFDYWGQGTLVTVSS VL: DIQMTQSPSTLSASVGDRVSITCRASQTIISWLAWYQQKPGKAPRLLIYKASSLESGVPSRFSGSGSGTEFTLTINSLQPDDFATYYCQQYNRYWTFGQGTKVEIK
16 | 0.164 nM | 2.12 h | 0.218 nM | 2.02 h | 0.199 nM | 4.07 h | H1H750N (antibody, V domains shown) VH: QVKLVESGGGVVQPGRSLRVSCAASGFTFSSYGMHWVRQAPGKGLEWLAIIWYDGDNKYYSDSVKGRFTISRDNSKNTLYLQMNSLRAEDTAEYYCVRDASIASRFLDYWGQGTLVTVSS VL: DIQMTQSPSSLSASIGDRVTITCRATQDINNYLAWFQQKPGKAPKSLIYATSNLQSGVPSKFSGSGSGTDYTLTISSLQPEDFSTYYCQQYHSYPLTFGGGTKVEIK

From US20150147342A1 (published 2015)
